In PMC10981675, “Structural basis for phage-mediated activation and repression of bacterial DSR2 anti-phage defense system” (Nature Communications, 2024):
Residue numbers refer to the chain shown, from its start. Names and notes keep the numbering of the source.

B1: defense-associated sirtuin 2 (DSR2), wild type (enzyme, Bacillus subtilis)
chain: MVKVDLESKRYGEKLKEVFLMLDNNVVECIKEITESSRNGKLVFFVGAGVSTLSDYPQWWRLVDKYHEELYGSPKKGNYSSDEYLRIPQIFYNVKGEMAFDGILKDFFQVDKPTNPIHDKILAMNPAHVITTNYDNLIDTACWKRGKYFSVISAEEDVANATSSRYLLKVHGDFRKGFKGENVVLKEDDYLNYDQNYPLISNLMKTIIATHTIVFIGYGLGDYNINMLLNWVRKLQKDSFHKPFFIRTDPSPIENETLIYYENKGLRIIDAASLIDSNEYDYLERYSAVMDLLIESQENKFITKDDEVIDYIYGKISPLFALQYIRKIDLKHVFEYDYHFEVNGTVVRHKNKGFGYMERFFELKESCDERSKLSKKQYERFNALFNFFEKNGVICMAKDAGTLNTSIEINSLAYHGKYDVMKKFIEEQSVSIEDDYKKAFFLACLGRWEESYDLYSNIILNSIDESNGCVYYLSQINRYRIYQSITQAVTQFNGLGLLTFGRHYKPFTDEFLARIEREMTNFNIDDLFNGMPFEFQKKYKILEFLSDNQFLYDDTVKLFELTNKVRSEMSEGSYSFGMSSDIVVLLRLYDNLRFLYENCLWSVSFHEFHQYIRNSMSLLIEKAEYERTRDIDELGFSFFGKKSGFFMEYYDFVNISRHFKIDDIKNLERSCSIDKIRFGEQEKIEEYLVGIAEEITKQFSANGMNVVFYTQFISEAKAALYFAKYVKLSEEGLGKIVKALLFYFPERDLDIGKRYVWLERLTKCNELPKSIISIIDDFLVLQAEKHIDQNYSEVSSNGLYSRDYGALIKHFEKNFISKRLSEITLCLTQDKQKQIDFLFKLLPLLSTNAKSHLLSFKSVENINDLMNGIRIGLIDEFTPEHEELIIEYLETRKVNYIVEKEKGIQTFSSNDYMSTFGIWYFLEEINNSKMEEFIGMDDQYDFFVDPENFDYKKFIPSWLKNYNDKLLGKIAGNKHMKHHVIEVLKERVKNSNDKRYLEILMNYFI
notes: DSR2 (defense-associated sirtuin 2) of Bacillus subtilis, NCBI protein WP_029317421; codon-optimized synthetic gene in pRSFDuet MCS1; Tetramer (dimer of dimers) by cryo-EM and SEC; also called WT DSR2; wild-type DSR2; source: E. coli BL21 Star (DE3), purified (Ni-NTA, HiTrap Q, Superdex 200); also co-purified with tube or DSAD1; not shown: 6×His, N-terminal, kept
B2: tail tube protein of phage SPR, wild type (natural protein)
chain: MKTVIQDTADVYFKRKSDGKLVFTAEAQTASFSQAISEEKLRGGIGNKPLYILKSEKEINLTVKNAFFDLEWLAMTQGETIQEETKVKVFDREHGLIVDDTNKVTLKGKPVSDVTFYNKKGLTYKIAVSTDGTYTIPTAFAAAKDKLTAVYQIEKVGRRLAIKASKFSERYEVEYRTIAYNPDTEEVYSDIYIQFPNVSPSGEFEMSLENGNALAPEIKFEALADTDTDEMAVVIEASRDENTAAPVEDTTGSTQSSDLGGTTE
notes: tail tube protein of Bacillus phage SPR; domains D1 and D2; GST removal with HRV 3C is told for the DSR2-tube complex; Alone it runs as monomeric and oligomeric species on SEC; Only D1 is seen in the maps; also called phage tail tube protein; source: E. coli BL21 Star (DE3); purified alone, or co-purified with DSR2 (Ni-NTA, glutathione resin, HRV 3C cleavage, HiTrap Q, Superdex 200); not shown: …
B3: DSR2 H171A (enzyme, Bacillus subtilis)
chain: B1 chain with H171A
notes: DSR2 of Bacillus subtilis, NCBI protein WP_029317421, with H171A; source: E. coli, co-expressed with the tail tube protein, co-purified

Experiments:
DSR2–tube complex = target: T1, DSR2–tube complex (Bacillus subtilis, UniProt P0DXN8); test: fluorescence NADase assay (ex […] nm, em […] nm); format: biochemical; settings: 400 nM protein, 50 μM εNAD+, 10 mM MES pH 6.5, 75 mM KCl, 2 mM MgCl2, 37 °C
T1 construct: gene BKP58_08510; full-length DSR2, N-terminal 6xHis, E. coli BL21 Star (DE3), codon-optimized; tube GST tag removed by HRV 3C; tetrameric DSR2; DSR2:tube 4:2 (wild type) or 4:4 (H171A with NAD+); with Tail tube protein (Bacillus phage SPR)
T1 sequence (P0DXN8 1-1005): B1 chain
T1 sequence (A0AAE9G628 1-264 partner): B2 chain

[1] = target: defense-associated sirtuin 2 (DSR2), wild type (Bacillus subtilis) (UniProt P0DXN8); test: cryo-EM structure; purified DSR2 (~25 mg/mL), co-purified DSR2-DSAD1 (~25 mg/mL) or co-purified DSR2-tube (~4 mg/mL, polylysine-treated grid); no NAD+ added; Titan Krios 300 kV; settings: scale: DSAD1 per DSR2
[2] = target: defense-associated sirtuin 2 (DSR2), wild type (Bacillus subtilis) (UniProt P0DXN8); test: cryo-EM structure; co-purified complex incubated with 1 mM NAD+ before freezing; settings: scale: DSAD1 per DSR2
[3] = target: the molecule itself; test: SEC; purified DSR2 alone; Superdex 200 Increase 10/300 GL, 20 mM Tris-HCl pH 7.5, 150 mM NaCl, 1 mM DTT
[4] = target: the molecule itself; test: SEC; purified tail tube protein alone
[5] = target: B1; test: cryo-EM structure; purified DSR2 (~25 mg/mL), co-purified DSR2-DSAD1 (~25 mg/mL) or co-purified DSR2-tube (~4 mg/mL, polylysine-treated grid); no NAD+ added; Titan Krios 300 kV; settings: both partners purified
DSR2 H171A = target: B3; test: cryo-EM structure; co-purified complex incubated with 1 mM NAD+ before freezing; settings: both partners purified
[6] = target: the molecule itself; test: as above

NC(=O)c1ccc[n+]([C@@H]2O[C@H](COP(=O)(O)OP(=O)(O)OC[C@H]3O[C@@H](n4cnc5c4ncn4ccnc54)[C@H](O)[C@@H]3O)[C@@H](O)[C@H]2O)c1 [εNAD^+]
fluorescence NADase assay (ex 300 nm, em 410 nm) (DSR2–tube complex): The purified DSR2–tube complex exhibited pronounced NADase activity

DSR anti-defense 1 (DSAD1) (natural protein)
stoichiometry N [1]: 0.5
stoichiometry N [2]: 0.5

B1
stoichiometry N [3]: 4

B2
binding result [4]: binds
stoichiometry N [5]: 0.5 tube per DSR2 (printed as DSR2:tube 4:2)
stoichiometry N (DSR2 H171A): 1 tube per DSR2 (printed as DSR2:tube 4:4)

B3
stoichiometry N [6]: 4
